From the supplement of paper PMC7877785
± gives the uncertainty stated by the source.

Assay: self-splicing fitness, log relative to wild type (ln ratio); higher = more splicing; Tetrahymena group I intron in knt gene, E. coli kanamycin selection, DiMSum; sequences stand for … in CUCUCU…GGAGGGAAAAGUUAUCAGGCAUGCACCUGGUAGCUAGUCUUUAAACCAAUAGAUUGCAUCGGUUUAAAAGGCAAGACCGUCAAAUUGCGGGAAAGGGGUCAACAGCCGUUCAGUACCAAGUCUCAGGGGAAACUUUGAGAUGGCCUUGCAAAGGGUAUGGUAAUAAGCUGACGGACAUGGUCCUAACCACGCAGCCAAGUCCUAAGUCAACAGAUCUUCUGUUGAUAUGGAUGCAGUUCACAGACUAAAUGUCGGUCGGGGAAGAUGUAUUCUUCUCAUAAGAUAUAGUCGGACCUCUCCUUAAUGGGAGCUAGCGGAUGAAGUGAUGCAACACUGGAGCCGCUGGGAACUAAUUUGUAUGCGAAAGUAUAUUGAUUAGUUUUGGAGUACUCGUGGUCG
In short: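 A randomised library covering all eight P1ex-region intron nucleotides was built with the intron in the knt kanamycin-resistance gene on pET-22b(+) and held in E. coli BL21(DE3). Cells were grown overnight at 37°C or 30°C on LB agar, with or without 25 μg/mL kanamycin, plus 100 μg/mL carbenicillin, 50 μM IPTG and 0.2% rhamnose, and pooled colonies were amplicon-sequenced on an Illumina HiSeq 2500. DiMSum fitness is the error-weighted combination of wild-type-normalised replicate fold changes, kanamycin versus none.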

Row | Sequence | self-splicing fitness (ln) (30 °C) | self-splicing fitness (ln) (37 °C)
1 | GUUAAGCAAUAUUACGGAGA | -3.29 ± 0.26 | -2.57 ± 0.25
2 | GUUAAGCAAUAUUACGGCUA | 0.289 ± 0.099 | 0.176 ± 0.1
3 | GUUAAGCAAUAUUACGGGCG | -1.44 ± 0.1 | -0.388 ± 0.11
4 | GUUAAGCAAUAUUACGGGUA | -2.01 ± 0.14 | -1.39 ± 0.12
5 | GUUAAGCAAUAUUACGGGUG | -3.29 ± 0.15 | -2.39 ± 0.14
6 | GUUAAGCAAUAUUACGGUCC | -0.666 ± 0.12 | 0.191 ± 0.15
7 | GUUAAGCAAUAUUACGGUCU | -2.3 ± 0.14 | -0.0437 ± 0.12
8 | GUUAAGCAAUAUUACGGUUA | -1.33 ± 0.096 | -0.554 ± 0.096
9 | GUUAAGCAAUAUUACGUCAG | – | -2.22 ± 0.4
10 | GUUAAGCAAUAUUACGUGGC | – | -2.1 ± 0.33
11 | GUUCAGCAAUAUUACGAAAA | -0.216 ± 0.13 | 0.45 ± 0.15
12 | GUUCAGCAAUAUUACGAAUG | -0.469 ± 0.076 | 0.0253 ± 0.11
13 | GUUCAGCAAUAUUACGACAC | -0.34 ± 0.15 | 0.897 ± 0.18
14 | GUUCAGCAAUAUUACGACUA | -1.28 ± 0.17 | -0.368 ± 0.15
15 | GUUCAGCAAUAUUACGAUGC | -0.236 ± 0.17 | 0.2 ± 0.14
16 | GUUCAGCAAUAUUACGCAGA | -1.72 ± 0.2 | -1.3 ± 0.17
17 | GUUCAGCAAUAUUACGCAGU | -1.18 ± 0.14 | 0.201 ± 0.22
18 | GUUCAGCAAUAUUACGCCGU | -1.57 ± 0.1 | -0.339 ± 0.12
19 | GUUCAGCAAUAUUACGCGAC | -3.9 ± 0.29 | -1.22 ± 0.29
20 | GUUCAGCAAUAUUACGCGCA | -1.04 ± 0.2 | 0.567 ± 0.21
21 | GUUCAGCAAUAUUACGCUAA | -1.03 ± 0.2 | 0.184 ± 0.2
22 | GUUCAGCAAUAUUACGCUCG | 0.167 ± 0.12 | 0.0872 ± 0.15
23 | GUUCAGCAAUAUUACGCUUA | -0.682 ± 0.12 | -0.0254 ± 0.12
24 | GUUCAGCAAUAUUACGCUUC | -0.641 ± 0.11 | -0.661 ± 0.14
25 | GUUCAGCAAUAUUACGGCAU | -0.334 ± 0.067 | 0.567 ± 0.072

Row | Sequence | self-splicing fitness (ln) (30 °C) | self-splicing fitness (ln) (37 °C)
26 | GUUCAGCAAUAUUACGGGCC | -3.61 ± 0.2 | -2.25 ± 0.2
27 | GUUCAGCAAUAUUACGGGGG | -1.52 ± 0.13 | -1.4 ± 0.16
28 | GUUCAGCAAUAUUACGGUUA | -0.817 ± 0.098 | -0.352 ± 0.082
29 | GUUCAGCAAUAUUACGUAGU | -0.247 ± 0.11 | 0.369 ± 0.11
30 | GUUCAGCAAUAUUACGUGCC | -2.59 ± 0.2 | -1.19 ± 0.19
31 | GUUCAGCAAUAUUACGUGGU | -1.03 ± 0.057 | -0.621 ± 0.079
32 | GUUCAGCAAUAUUACGUGUG | -0.881 ± 0.066 | -0.806 ± 0.084
33 | GUUCAGCAAUAUUACGUUUU | -0.661 ± 0.052 | -0.216 ± 0.062
34 | GUUGAGCAAUAUUACGAAUC | -1.91 ± 0.26 | 0.505 ± 0.25
35 | GUUGAGCAAUAUUACGACAC | -0.129 ± 0.18 | -0.362 ± 0.19
36 | GUUGAGCAAUAUUACGAGAU | -2.7 ± 0.19 | -2.81 ± 0.31
37 | GUUGAGCAAUAUUACGAGCA | -2.68 ± 0.28 | -1.71 ± 0.32
38 | GUUGAGCAAUAUUACGAGCG | – | -1.37 ± 0.25
39 | GUUGAGCAAUAUUACGAGGG | -2.7 ± 0.21 | -2.67 ± 0.24
40 | GUUGAGCAAUAUUACGAGUU | – | -2.56 ± 0.33
41 | GUUGAGCAAUAUUACGAUUU | -1.2 ± 0.12 | -1.64 ± 0.16
42 | GUUGAGCAAUAUUACGCACA | -1.83 ± 0.14 | -0.945 ± 0.15
43 | GUUGAGCAAUAUUACGCAGA | -2.67 ± 0.34 | -3.6 ± 0.46
44 | GUUGAGCAAUAUUACGCAGC | -2.23 ± 0.35 | –
45 | GUUGAGCAAUAUUACGCCGA | -2.15 ± 0.41 | –
46 | GUUGAGCAAUAUUACGCGAU | -3.79 ± 0.3 | -2.47 ± 0.34
47 | GUUGAGCAAUAUUACGCUUU | -3.95 ± 0.48 | -2.45 ± 0.26
48 | GUUGAGCAAUAUUACGGACA | -0.932 ± 0.47 | -1.32 ± 0.43
49 | GUUGAGCAAUAUUACGGCUG | -1.41 ± 0.11 | -0.467 ± 0.14
